Test results: article PMC5278397, “Discovery of a junctional epitope antibody that stabilizes IL-6 and gp80 protein:protein interaction and modulates its downstream signaling” (Scientific Reports, 2017)
Residue numbers refer to the chain shown, from its start. In names and notes the source's numbering stands.

Experiments:
IL-6 = target: T1, IL-6 (UniProt P05231 49-212); assay: SPR; IL-6 amine-coupled on CM5; gp80 (gp80V4) injected at 50 nM, 30 μl/min, 180 s, dissociation 360 s; 25 °C, HBS-P+; BIAcore 3000; without VHH6; conditions: both partners purified
T1 construct: interleukin-6 (IL-6); Two in-house constructs are named (IL-6 and IL-6S21); IL-6 bought from R&D Systems was used 'for in vitro experiments'; source: E. coli, produced in house, purified

[1] = target: T2, IL-6–gp80 complex (IL-6 with gp80V4) (Homo sapiens, UniProt P05231;PDB); assay: SPR; His-tagged VHH6 or mutants captured from 1:5 diluted supernatants on a nickel charged NTA chip; equimolar mixture of IL-6 and gp80 (50 nM each) injected for 300 s at 10 μl/min, dissociation 300 s; BIAcore 3000; 25 °C, HBS-P+; conditions: one partner purified
T2 construct: interleukin-6 (IL-6), as m2; also called equimolar mixture of IL-6 and gp80

gp80 = target: T3, gp80 (Homo sapiens, UniProt P08887); assay: BLI; VHH6 captured through its His-tag on Ni-NTA tips; FusionIL-6, IL-6, gp80 and IL-6+gp80 in solution; Octet 384 Red; conditions: both partners purified
T3 construct: IL-6 receptor gp80 (CD126), soluble; also called CD126; IL-6 specific receptor

[2] = target: T4, IL-6–gp80 complex (gp80 construct not stated) (Homo sapiens, UniProt P05231;P08887); assay: as above; conditions: both partners purified
T4 construct: interleukin-6 (IL-6), as m2; gp80, as m5; also called dimeric complex IL-6–gp80; source: mixture of IL-6 and gp80

gp80-hscFc = target: T5, gp80-hscFc (UniProt P08887); assay: ELISA; IL-6, gp80 or FusionIL-6 coated at 2 μg/mL in carbonate buffer overnight at 4 °C; supernatant from HEK cells or purified VHHs added; anti-llama-HRP or anti-His-HRP; includes the initial screen
T5 construct: IL-6 receptor gp80 (CD126); hscFc is not explained in the text

IL-6 with gp80-hscFc = target: T6, IL-6 with gp80-hscFc (UniProt P05231;P08887); assay: ELISA; IL-6 coated overnight and VHH6 added with gp80-hscFc, or gp80-hscFc coated overnight and VHH6 added with IL-6
T6 construct: interleukin-6 (IL-6), as m2; gp80 of gp80-hscFc, as m4; also called IL-6–gp80 complex (ELISA); source: one partner coated on the plate, the other added together with VHH6

gp80-NT647+IL-6 = target: T7, gp80-NT647+IL-6 (Homo sapiens, UniProt P08887;P05231, NT647 dye on primary amines of lysine residues (NHS ester)); assay: MST; IL-6 or gp80 labelled with NT647, alone (VHH6 titrated up to 20 μM) or mixed with the unlabelled partner (10 nM IL-6NT647 and 20 nM gp80; VHH6 titrated in); Monolith NT.115, red channel; conditions: both partners purified
T7 construct: gp80, as m9; interleukin-6 (IL-6), as m2; also called mixture of gp80-NT647 and IL-6; source: mixture of labelled gp80 and IL-6

gp80-NT647 = target: T8, gp80-NT647 (Homo sapiens, UniProt P08887, NT647 dye on primary amines of lysine residues (NHS ester)); assay: as above; conditions: both partners purified
T8 construct: IL-6 receptor gp80 (CD126); also called gp80 labelled with NT647; source: labelled with the Monolith labelling Red NHS kit

IL-6-NT647+gp80 = target: T9, IL-6-NT647+gp80 (Homo sapiens, UniProt P05231;P08887, NT647 dye on primary amines of lysine residues (NHS ester)); assay: as above; conditions: both partners purified
T9 construct: interleukin-6 (IL-6), as m8; gp80, as m5; also called mixture of IL-6-NT647 and gp80; source: mixture of 10 nM IL-6NT647 and 20 nM gp80

IL-6-NT647 = target: T10, IL-6-NT647 (UniProt P05231, NT647 dye on primary amines of lysine residues (NHS ester)); assay: as above; conditions: both partners purified
T10 construct: interleukin-6 (IL-6); also called IL-6 labelled with NT647; source: labelled with the Monolith labelling Red NHS kit
T10 sequence (P05231 30-212): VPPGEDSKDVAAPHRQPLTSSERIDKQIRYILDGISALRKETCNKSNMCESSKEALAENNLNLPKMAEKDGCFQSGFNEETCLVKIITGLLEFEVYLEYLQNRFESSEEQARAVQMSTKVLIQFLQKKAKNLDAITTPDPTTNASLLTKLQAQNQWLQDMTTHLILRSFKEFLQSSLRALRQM

T2 sequence (P05231 28-212, one chain of several): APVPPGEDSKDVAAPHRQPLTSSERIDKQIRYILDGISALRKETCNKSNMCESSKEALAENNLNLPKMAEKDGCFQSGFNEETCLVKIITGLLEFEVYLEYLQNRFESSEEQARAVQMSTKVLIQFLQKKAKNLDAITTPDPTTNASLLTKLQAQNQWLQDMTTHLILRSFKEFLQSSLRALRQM
T6 sequence (P05231 30-212, chain 1 of 2): as the sequence (P05231 30-212) above
T6 sequence (P08887 20-468, chain 2 of 2): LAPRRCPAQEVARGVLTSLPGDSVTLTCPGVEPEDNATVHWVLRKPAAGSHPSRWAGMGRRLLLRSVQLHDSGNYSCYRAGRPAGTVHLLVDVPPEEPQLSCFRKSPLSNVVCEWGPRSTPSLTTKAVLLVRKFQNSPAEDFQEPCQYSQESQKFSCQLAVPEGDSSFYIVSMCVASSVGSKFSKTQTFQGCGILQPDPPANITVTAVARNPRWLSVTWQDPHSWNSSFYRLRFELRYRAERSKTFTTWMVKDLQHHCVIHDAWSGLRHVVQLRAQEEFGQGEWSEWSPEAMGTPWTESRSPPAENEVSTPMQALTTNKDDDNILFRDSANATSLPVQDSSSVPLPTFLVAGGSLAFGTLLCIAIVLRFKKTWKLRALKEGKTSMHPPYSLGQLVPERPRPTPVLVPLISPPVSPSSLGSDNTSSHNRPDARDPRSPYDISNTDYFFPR
T9 sequence (P05231 30-212, chain 1 of 2): as the sequence (P05231 30-212) above
T9 sequence (P08887 20-468, chain 2 of 2): as the sequence (P08887 20-468, chain 2 of 2) above
T7 sequence (P08887 20-468, chain 1 of 2): as the sequence (P08887 20-468, chain 2 of 2) above
T7 sequence (P05231 30-212, chain 2 of 2): as the sequence (P05231 30-212) above
T8 sequence (P08887 20-468): as the sequence (P08887 20-468, chain 2 of 2) above
T5 sequence (P08887 20-365): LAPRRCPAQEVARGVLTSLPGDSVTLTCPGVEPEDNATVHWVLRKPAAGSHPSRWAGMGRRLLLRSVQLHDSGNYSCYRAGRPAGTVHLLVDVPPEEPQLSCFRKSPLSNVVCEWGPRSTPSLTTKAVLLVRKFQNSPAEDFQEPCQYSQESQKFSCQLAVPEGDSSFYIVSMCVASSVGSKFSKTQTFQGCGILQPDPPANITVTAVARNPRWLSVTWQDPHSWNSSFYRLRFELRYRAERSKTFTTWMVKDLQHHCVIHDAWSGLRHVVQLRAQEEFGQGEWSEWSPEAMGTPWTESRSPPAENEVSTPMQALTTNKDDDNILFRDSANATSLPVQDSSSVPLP

B1: gp80V4 (receptor)
chain: GLAPRRCPAQEVARGAGAGDVPPEEPQLSCFRKSPLSNVVCEWGPRSTPSLTTKAVLLVRKFQNSPAEDFQEPCQYSQESQKFSCQLAVPEGDSSFYIVSMCVASSVGSKFSKTQTFQGAGILQPDPPANITVTAVARNPRWLSVTWQDPHSWNSSFYRLRFELRYRAERSKTFTTWMVKDLQHHAVIHDAWSGLRHVVQLRAQEEFGQGEWSEWSPEAMGTPWTESRSPP
modifications: N-glycosylated, high-mannose (Expi-HEK/CHO with kifunensine) for crystallography and HDX-MS. The limits and engineered changes are not given, so they are taken from the deposited 5FUC entity 2: D1 …
- koff (IL-6): 0.045 s⁻¹

B2: VHH6 Y27A mutant (VHH)
VHH: DVQFVESGGGSVHAGGSLRLNCATSGAIYSTYCMGWFRQAPGKEREGVAHIYTNSGRTYYADSVKGRFTISQDNAKNTVYLQMNSLKPEDTAIYYCAARPSIRCASFSATEYKDWGQGTQVTVSS
notes: source: Expi-HEK cells, small scale transient expression, in supernatant; not shown: His6 (TEV-6His), C-terminal, kept
- fold increase of the dissociation rate against VHH6 [1]: 1.9 fold

B3: VHH6 double mutant Asn74Ala/Ser101Ala (VHH)
VHH: B2 VHH with A27Y, N74A, S101A
notes: also called double mutant 74/101; source: Expi-HEK cells, small scale transient expression, in supernatant; not shown: His6 (TEV-6His), C-terminal, kept
- fold increase of the dissociation rate against VHH6 [1]: 3.8 fold

B4: VHH6 double mutant Ser101Ala/Lys113Ala (VHH)
VHH: B2 VHH with A27Y, S101A, K113A
notes: also called double mutant 113/101; source: Expi-HEK cells, small scale transient expression, in supernatant; not shown: His6 (TEV-6His), C-terminal, kept
- fold increase of the dissociation rate against VHH6 [1]: 4.3 fold

B5: VHH6 (VHH)
VHH: B2 VHH with A27Y
notes: camelid single domain antibody; The His tag is named on VHH6 for the Octet and the NTA-chip SPR; also called locking antibody; source: Expi-HEK cells, transiently transfected; in supernatant (SPR on the NTA chip) or purified; not shown: His6 (TEV-6His), C-terminal, kept
- binding result (gp80): no binding
- binding result [2]: binds
- binding result (gp80-hscFc): no binding
- binding result (IL-6 with gp80-hscFc): binds
- binding result (gp80-NT647+IL-6): binds
- binding result (gp80-NT647): no binding (tested: up to 20 μM VHH6)
- binding result (IL-6-NT647+gp80): binds
- binding result (IL-6-NT647): no binding (tested: up to 20 μM VHH6)
